Among the data in patent US20080096223A1 are platelet coverage and percent reduction of binding values, retold here.

The target in test [1] is VWF in human whole blood of healthy volunteers (human) (UniProt P04275). Put plainly: cell-based or functional assay.
The target in test [2] is reference Nanobody (in accordance with WO 04/062551). Nature of the test: competition ELISA: soluble ristocetin-preincubated wt-VWF at equal molar concentration against 62.5 nM biotinylated reference Nanobody on immobilized VWF.

Consider “GpIbα on platelets (from UniProt P07359 17-652) (receptor)”, for which the platelet coverage in test [1] was found to be 67.8%. “wt-VWF preincubated with 1 mg/ml ristocetin (ristocetin-activated VWF) (from UniProt P04275 764-2813)”: the percent reduction of binding in test [2] was 90%.
